Data reported in PMC7583250, “Type III ATP synthase is a symmetry-deviated dimer that induces membrane curvature through tetramerization” (Nature Communications, 2020).
Each block holds one molecule with its values, some of them ahead of it.

Tests used:
ATPTT1 = target: T1, ATPTT1 (Tetrahymena thermophila, UniProt I7LVQ8); test: cryo-EM structure; assay type: binding; conditions: co-purified native cofactor in pocket of two Rossmann folds; oxidation state not stated
T1 construct: gene TTHERM_00137990; 55-kDa Fo-wing subunit of native mitochondrial ATP synthase dimer, purified in digitonin from T. thermophila mitochondria
T1 sequence (I7LVQ8 1-480): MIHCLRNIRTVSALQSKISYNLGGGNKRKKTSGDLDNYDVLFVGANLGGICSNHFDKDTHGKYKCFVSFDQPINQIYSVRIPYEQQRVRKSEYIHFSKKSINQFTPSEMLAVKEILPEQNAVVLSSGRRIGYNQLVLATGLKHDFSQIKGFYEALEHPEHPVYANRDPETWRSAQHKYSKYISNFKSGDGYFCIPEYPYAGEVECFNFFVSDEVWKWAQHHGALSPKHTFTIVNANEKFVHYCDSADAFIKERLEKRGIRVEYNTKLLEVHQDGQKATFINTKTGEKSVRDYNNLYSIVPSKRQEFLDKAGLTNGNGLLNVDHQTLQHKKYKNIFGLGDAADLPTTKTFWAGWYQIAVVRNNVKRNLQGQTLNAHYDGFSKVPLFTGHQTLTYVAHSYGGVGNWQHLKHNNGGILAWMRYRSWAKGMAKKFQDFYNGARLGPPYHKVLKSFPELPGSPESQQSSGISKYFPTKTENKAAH

[1] = target: type III mitochondrial F1Fo-ATP synthase (monomer) in complex with IF1 (Tetrahymena thermophila (endogenous in its mitochondria)) (UniProt Q951C1); test: cryo-EM structure; native IF1-inhibited ATP synthase dimer purified from T. thermophila mitochondria in digitonin (25 mM Hepes/KOH pH 7.5, 25 mM KCl, 5 mM MgCl2, 0.1% w/v digitonin); 2.7 Å overall, masked refinements 2.5-3.1 Å
[2] = target: type III mitochondrial F1Fo-ATP synthase (monomer) in complex with IF1 (Tetrahymena thermophila (endogenous in its mitochondria)) (UniProt Q951C1); test: cryo-EM structure; native ATP synthase tetramer particles of the same sample; 3.3 Å overall, Fo tetramer membrane region 3.1 Å; two dimer models refined into the Fo-tetramer map
[3] = target: F1 inhibitor protein IF1 (Tetrahymena thermophila (endogenous in its mitochondria)); test: cryo-EM structure; native IF1-inhibited ATP synthase dimer purified from T. thermophila mitochondria in digitonin (25 mM Hepes/KOH pH 7.5, 25 mM KCl, 5 mM MgCl2, 0.1% w/v digitonin); 2.7 Å overall, masked refinements 2.5-3.1 Å
[4] = target: the molecule itself; test: as above

Molecule: NC(=O)c1ccc[n+]([C@@H]2O[C@H](COP(=O)([O-])OP(=O)(O)OC[C@H]3O[C@@H](n4cnc5c(N)ncnc54)[C@H](O)[C@@H]3O)[C@@H](O)[C@H]2O)c1 [NAD]
- cryo-EM structure (ATPTT1): in ATPTT1 the binding pocket formed by two Rossmann folds contains the co-factor

- stoichiometry N [1]: 2
- stoichiometry N [2]: 4
Molecule: type III mitochondrial F1Fo-ATP synthase (monomer) in complex with IF1 (from UniProt Q951C1 1-446)

- stoichiometry N [3]: 2
Molecule: F1 inhibitor protein IF1 (natural protein)

B1: ATP synthase subunit-a (natural protein, UniProt Q951C1 1-446, looked up)
chain: MGRENVLPVHNDVYEDFVFTTPYFQPESTFKSVPKLFSDILLGGVEWVYTTSESVLAYDYKLWYLWSGVSNLDESFDMFFNQYWALSLSTSVFQLFYAVILDRYLSVLFQNTPYTNDWFRMMLHSKETALIWLYHPELSWHINGLNQFFTYFYGGILEFVYFDKSNPDMCILVHTLWIHLLILFLIFTGFVTILFSFYGNPNTEENTIDSDYLAASGTVEAEKEITSIDDYLGLVFAIAYVFGVFFYVHGWTSMLSHAVLLLSCYSIIIMFLFILGMPTLLLYDFGIFFLAYLKGAGKYISSVAEMMFDYTACLVFYIRILAQWIRVVLMVVTFISLSHYVSDFDITNSALIGSENQSDSMNELNTNFSMTYYILTVLPGKFIYWIYEILHTFFVVCSQFVAFFAIVFWLFLFLYTFFIIEKHEDFFSKKREERKKKLKELWNLKN
notes: ATP synthase subunit a, Tetrahymena thermophila; overall length of 446 amino acids, with 170- and 38-amino acid N- and C-terminal extensions; source: endogenous, purified from T. thermophila mitochondria within the ATP synthase (digitonin, sucrose cushion, Superose 6)
- binding result [4]: binds
